Measured values taken from US11787839B2, “Targeting α2δ-1-bound glutamate receptors for treating diseases and disorders” (Board of Regents, The University of Texas System, priority 2017, dated 2023).

Legend:
Cacna2d1 KO mice = assay: Nerve injury-induced pain hypersensitivity in Cacna2d1 KO mice; format: in vivo, mouse
Experimental: Conventional α2δ-1 KO mice (C57BL/6 genetic background) were generated as described previously (Muller et al., 2010). Two breeding pairs of α2δ-1^+/− mice were purchased from Medical Research Council (Harwell Didcot, Oxfordshire, UK), and α2δ-I^−/− mice and α2δ-1^+/+ (wild-type) littermates were obtained by breeding the heterozygous mice. The spared nerve injury (SNI) procedure […] was performed on both male and female mice (10-11 weeks of age). Under a surgical microscope, the left common peroneal and tibial nerves were ligated and sectioned, leaving the sural nerve intact. The sham procedure consisted of the same surgery without nerve ligation and sectioning.
Behavioral assessments of nociception: To detect tactile allodynia, von Frey filaments were applied to the animals' left hindpaws (ipsilateral to the nerve injury). The rats or mice were placed individually in suspended chambers on a mesh floor. […] Using the up-down method, the tactile stimulus that produced a 50% likelihood of a withdrawal response was calculated (Fuller-Bicer et al., 2009).
To quantify the mechanical nociceptive threshold in the rats and mice (Patel et al., 2013; Dolphin et al., 2012), the paw pressure tests were conducted on the hindpaw with an analgesiometer (Ugo Basile, Varese, Italy). […]

[1] = target: T1, NMDARs of hippocampal CA1 pyramidal neurons (Mus musculus, UniProt O08532+P35438); assay: Puff NMDAR currents of hippocampal CA1 neurons, oxygen-glucose deprivation (OGD); format: cell-based; settings: gabapentin 30 or 100 μM, 60 min
T1 construct: from tissue; host or cells: mouse brain slices (hippocampal CA1, hypothalamic PVN, brain tissue membrane extracts)
T1 sequence (O08532 25-956 limits assumed, other chains not shown): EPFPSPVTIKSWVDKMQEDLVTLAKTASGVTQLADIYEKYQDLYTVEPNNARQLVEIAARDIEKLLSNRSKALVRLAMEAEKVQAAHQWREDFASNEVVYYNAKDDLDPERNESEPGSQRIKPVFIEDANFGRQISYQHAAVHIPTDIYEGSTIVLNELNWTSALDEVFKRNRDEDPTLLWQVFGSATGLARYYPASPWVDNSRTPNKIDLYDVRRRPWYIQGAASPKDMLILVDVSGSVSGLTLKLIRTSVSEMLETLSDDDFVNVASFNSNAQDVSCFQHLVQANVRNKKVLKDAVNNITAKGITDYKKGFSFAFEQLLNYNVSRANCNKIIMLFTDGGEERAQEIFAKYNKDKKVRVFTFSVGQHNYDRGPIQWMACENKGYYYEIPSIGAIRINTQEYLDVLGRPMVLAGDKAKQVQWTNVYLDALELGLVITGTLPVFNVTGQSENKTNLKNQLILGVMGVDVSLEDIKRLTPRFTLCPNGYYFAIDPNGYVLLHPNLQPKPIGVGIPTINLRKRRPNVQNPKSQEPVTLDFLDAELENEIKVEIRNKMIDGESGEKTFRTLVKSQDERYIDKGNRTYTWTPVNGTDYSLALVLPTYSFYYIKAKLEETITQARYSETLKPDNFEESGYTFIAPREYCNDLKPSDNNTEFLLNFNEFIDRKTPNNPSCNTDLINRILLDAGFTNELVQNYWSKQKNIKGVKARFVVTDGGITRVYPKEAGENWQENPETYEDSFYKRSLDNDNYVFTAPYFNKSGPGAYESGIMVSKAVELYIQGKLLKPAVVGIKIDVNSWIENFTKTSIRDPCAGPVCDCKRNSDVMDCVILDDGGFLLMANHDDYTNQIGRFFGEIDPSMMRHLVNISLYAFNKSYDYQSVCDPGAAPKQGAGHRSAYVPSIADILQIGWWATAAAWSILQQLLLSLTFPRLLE
Experimental: Brain slice preparation and recording. The tissues containing the hippocampus were sliced sagittally (300 μm thick) using a vibratome. […] NMDAR currents of pyramidal neurons in the hippocampal CA1 region were recorded by puff application of 100 μM NMDA directly to the recorded neuron at a holding potential of −60 mV.

[2] = target: presynaptic NMDARs of spinal lamina II neurons (Rattus norvegicus, UniProt P35439+Q00959+Q00960)
Sequence of presynaptic NMDARs of spinal lamina II neurons (Q00959 20-1464 limits assumed, other chains not shown): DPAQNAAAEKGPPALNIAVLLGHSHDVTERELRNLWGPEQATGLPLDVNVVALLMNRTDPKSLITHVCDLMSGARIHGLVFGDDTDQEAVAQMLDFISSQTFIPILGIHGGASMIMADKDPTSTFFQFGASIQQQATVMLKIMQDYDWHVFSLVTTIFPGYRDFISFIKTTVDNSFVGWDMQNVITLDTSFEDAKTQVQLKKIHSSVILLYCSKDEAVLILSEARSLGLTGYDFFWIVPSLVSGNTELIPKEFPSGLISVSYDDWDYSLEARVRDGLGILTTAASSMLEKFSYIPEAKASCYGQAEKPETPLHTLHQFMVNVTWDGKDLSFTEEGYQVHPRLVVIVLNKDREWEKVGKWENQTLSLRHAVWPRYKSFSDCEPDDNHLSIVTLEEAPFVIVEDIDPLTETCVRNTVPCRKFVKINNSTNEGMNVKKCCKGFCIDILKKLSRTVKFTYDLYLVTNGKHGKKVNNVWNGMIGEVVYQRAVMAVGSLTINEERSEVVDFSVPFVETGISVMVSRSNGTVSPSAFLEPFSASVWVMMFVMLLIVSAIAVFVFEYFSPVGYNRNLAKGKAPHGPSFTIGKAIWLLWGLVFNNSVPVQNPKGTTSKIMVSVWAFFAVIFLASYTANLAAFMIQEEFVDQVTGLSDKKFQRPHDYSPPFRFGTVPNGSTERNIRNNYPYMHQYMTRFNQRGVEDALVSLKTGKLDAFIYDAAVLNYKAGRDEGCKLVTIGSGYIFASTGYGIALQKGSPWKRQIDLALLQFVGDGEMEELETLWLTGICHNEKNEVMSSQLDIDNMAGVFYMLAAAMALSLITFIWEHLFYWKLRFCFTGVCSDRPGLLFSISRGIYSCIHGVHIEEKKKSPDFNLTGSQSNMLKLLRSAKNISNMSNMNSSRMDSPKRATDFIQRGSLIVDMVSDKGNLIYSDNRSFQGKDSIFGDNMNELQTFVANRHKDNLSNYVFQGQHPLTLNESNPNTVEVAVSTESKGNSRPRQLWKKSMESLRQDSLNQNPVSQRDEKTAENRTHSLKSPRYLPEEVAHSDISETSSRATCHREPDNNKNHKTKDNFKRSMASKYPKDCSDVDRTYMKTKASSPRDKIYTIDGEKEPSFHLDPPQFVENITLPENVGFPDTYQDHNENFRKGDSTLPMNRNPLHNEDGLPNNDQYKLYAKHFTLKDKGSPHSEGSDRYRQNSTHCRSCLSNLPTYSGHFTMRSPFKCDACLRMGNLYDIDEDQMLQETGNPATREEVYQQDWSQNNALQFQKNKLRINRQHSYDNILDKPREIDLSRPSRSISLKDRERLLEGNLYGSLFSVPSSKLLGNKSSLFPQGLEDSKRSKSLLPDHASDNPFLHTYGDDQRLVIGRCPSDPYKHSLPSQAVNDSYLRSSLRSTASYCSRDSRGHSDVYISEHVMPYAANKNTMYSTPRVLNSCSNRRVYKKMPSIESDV
Sequence of presynaptic NMDARs of spinal lamina II neurons (Q00960 27-1482, other chains not shown): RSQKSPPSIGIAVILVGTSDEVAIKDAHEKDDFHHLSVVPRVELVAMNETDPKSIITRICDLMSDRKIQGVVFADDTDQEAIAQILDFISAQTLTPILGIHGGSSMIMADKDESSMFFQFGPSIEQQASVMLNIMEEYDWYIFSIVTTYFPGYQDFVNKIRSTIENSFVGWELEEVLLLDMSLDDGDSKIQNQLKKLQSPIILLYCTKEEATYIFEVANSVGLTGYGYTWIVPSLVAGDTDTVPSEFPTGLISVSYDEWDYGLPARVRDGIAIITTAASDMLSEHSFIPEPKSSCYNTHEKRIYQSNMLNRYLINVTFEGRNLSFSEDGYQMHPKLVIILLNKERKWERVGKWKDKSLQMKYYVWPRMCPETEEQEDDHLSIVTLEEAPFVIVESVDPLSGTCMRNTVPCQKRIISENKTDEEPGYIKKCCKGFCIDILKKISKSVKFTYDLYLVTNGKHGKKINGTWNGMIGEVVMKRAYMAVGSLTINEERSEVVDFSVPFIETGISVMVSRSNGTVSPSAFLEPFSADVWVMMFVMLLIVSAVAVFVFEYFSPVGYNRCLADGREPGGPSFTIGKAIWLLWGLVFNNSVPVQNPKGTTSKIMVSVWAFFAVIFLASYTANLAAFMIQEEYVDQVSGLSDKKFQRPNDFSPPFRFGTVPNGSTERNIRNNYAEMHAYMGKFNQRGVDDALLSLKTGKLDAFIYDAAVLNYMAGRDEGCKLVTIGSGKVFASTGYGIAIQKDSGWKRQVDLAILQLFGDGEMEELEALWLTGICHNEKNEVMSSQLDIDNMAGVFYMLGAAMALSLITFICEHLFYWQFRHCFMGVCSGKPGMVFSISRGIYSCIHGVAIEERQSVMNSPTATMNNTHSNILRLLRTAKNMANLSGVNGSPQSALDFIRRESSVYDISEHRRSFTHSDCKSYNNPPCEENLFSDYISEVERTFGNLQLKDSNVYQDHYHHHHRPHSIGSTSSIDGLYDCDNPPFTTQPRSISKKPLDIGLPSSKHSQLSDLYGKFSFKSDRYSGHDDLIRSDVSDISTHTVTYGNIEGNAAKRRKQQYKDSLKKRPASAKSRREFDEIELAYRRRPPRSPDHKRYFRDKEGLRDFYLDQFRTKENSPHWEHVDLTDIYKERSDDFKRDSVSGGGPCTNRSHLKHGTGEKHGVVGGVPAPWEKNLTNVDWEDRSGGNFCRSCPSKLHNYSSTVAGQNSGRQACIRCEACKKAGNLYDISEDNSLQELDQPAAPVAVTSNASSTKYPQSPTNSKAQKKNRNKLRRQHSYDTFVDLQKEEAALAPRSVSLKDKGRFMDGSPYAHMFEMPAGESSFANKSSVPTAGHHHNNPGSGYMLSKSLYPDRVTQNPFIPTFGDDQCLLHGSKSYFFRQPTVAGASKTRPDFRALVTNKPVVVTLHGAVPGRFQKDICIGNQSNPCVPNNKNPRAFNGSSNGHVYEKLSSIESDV

[3] = test system: NMDARs of spinally projecting PVN neurons; assay: Recordings of spinally projecting PVN neurons in WT and Cacna2d1 KO mouse slices (Ang II); format: cell-based; settings: Ang II 2 μmol/L
Description: Animals: 10- to 12-week-old male Sprague Dawley rats were used (Harlan Sprague Dawley, Indianapolis, Ind.) and both male and female mice (C57BL/6 genetic background) in the experiments. Two breeding pairs of Cacna2d1+/− mice were purchased from Medical Research Council (Harwell Didcot, Oxfordshire, UK), and Cacna2d1−/− (knockout) mice and Cacna2d1+/+ (wild-type) littermates were obtained by breeding the heterozygous mice. Because no sex differences were found in the effect of Ang II on synaptic NMDAR activity, electrophysiological data from male and female mice were pooled. All surgical preparation and experimental protocols were approved by the Animal Care and Use Committee of The University of Texas MD Anderson Cancer Center and conformed to the National Institutes of Health guidelines for the ethical use of animals. All efforts were made to minimize both the suffering and number of animals used.
Retrograde labeling of spinally projecting PVN neurons: Rats or mice were anesthetized with 2-3% isoflurane, and their spinal cords at the T1-T4 level were exposed through dorsal laminectomy. A fluorescent microsphere suspension (FluoSpheres, 0.04 μm; Molecular Probes, Invitrogen, Eugene, Oreg.) was pressure ejected (Nanoject II Microinjectors, Drummond Scientific Company, Broomall, Pa.) bilaterally into the IML region of the spinal cord in six separate 50-nl injections using a glass micropipette (tip diameter, 20-30 μm). The tracer injection was monitored through a surgical microscope (Li et al., 2002, 2003). The wound was closed with sutures after injection. Animals were returned to their cages for 4-7 days, which was sufficient time to permit the tracer to be retrogradely transported to the PVN. The animals were inspected daily for motor activity, signs of infection, and food and water intake.
Brain slice preparation: Four to seven days after fluorescent tracer injection, the animals were anesthetized with isoflurane and rapidly decapitated. The brain was quickly removed and placed in ice-cold artificial CSF (aCSF) saturated with 95% O2 and 5% CO2. A tissue block containing the hypothalamus was cut from the brain and glued onto the stage of a vibratome (Leica VT1000 S, Leica Biosystems Inc. Buffalo Grove, Ill.) as described previously (Li et al., 2003; Ye et al., 2011). […]
Electrophysiological recordings: The fluorescence-labeled neurons located in the medial one-third of the PVN area between the third ventricle and the fornix were selected for recording (Li et al., 2002, 2003). […]
The miniature excitatory postsynaptic currents (mEPSCs) were recorded in the presence of 1 μmol/L tetrodotoxin (TTX) and 20 μmol/L bicuculline at a holding potential of −60 mV (Li et al., 2003; Ye et al., 2011). […]

[4] = paclitaxel-treated rats, AP5 50 μM, pregabalin 20 μM, peptides 1 μM
[5] = vehicle-treated rats, AP5 50 μM, pregabalin 20 μM, peptides 1 μM

Substance | nerve injury-induced pain hypersensitivity in Cacna2d1 KO mice (Cacna2d1 KO mice) | OGD-induced increase in the puff NMDAR currents ([1]; 5 min OGD, peptides 1 μM) | basal puff NMDAR currents of hippocampal CA1 pyramidal neurons ([1]; before OGD, peptide 1 μM) | reduced PPR of evoked EPSCs ([2]; paclitaxel-treated rats) | increased amplitude of evoked monosynaptic EPSCs [2, 4] | increased frequency of mEPSCs of lamina II neurons [2, 4] | PPR of evoked EPSCs ([2]; vehicle-treated rats) | amplitude of evoked monosynaptic EPSCs [2, 5] | frequency of mEPSCs of lamina II neurons [2, 5] | amplitude of puff NMDA-elicited currents ([3]; Cacna2d1−/− mice) | frequency of mEPSCs ([3]; Cacna2d1−/− mice) | NMDAR-mediated frequency of mEPSCs ([3]; wild-type mice) | amplitude of puff NMDA-elicited currents ([3]; wild-type mice)
YGRKKRRQRRRVSGLNPSLWSIFGLQFILLWLVSGSRHYLW (a2d1 peptide) [α2δ-1Tat peptide] | had no effect | failed to increase | had no effect | fully reversed | completely reversed | completely normalized | had no effect | did not affect | neither incubation with α2δ-1Tat peptide nor bath application of AP5 had any effect |  |  |  | 
Ang II: angiotensin II, obtained from Sigma (DRVYIHPF; Angiotensin-2; UniProt P01019 25-32, looked up) |  |  |  |  |  |  |  |  |  | had no effect | had no effect | markedly increased | markedly increased
